According to US20140255415A1 (Novartis, published 2014):

Assays:
[1] = biological target: human LINGO-1 expressed on CHO-K1 cells (CHO-K1-hLINGO-1) (human) (UniProt Q96FE5); assay: apparent KD, FACS saturation binding on CHO-K1-hLINGO-1 cells, IgG4 format
[2] = biological target: T1, cynomolgus monkey LINGO-1 expressed on CHO-K1 cells (CHO-K1-cmLINGO-1) (cynomolgus monkey, UniProt Q9N008 34-614); assay: apparent KD, FACS saturation binding on CHO-K1-cmLINGO-1 cells, IgG4 format
T1 construct: range 34-614; also called Cynomolgus LINGO-1; not shown: 2 amino acid residue linker
T1 sequence (looked up): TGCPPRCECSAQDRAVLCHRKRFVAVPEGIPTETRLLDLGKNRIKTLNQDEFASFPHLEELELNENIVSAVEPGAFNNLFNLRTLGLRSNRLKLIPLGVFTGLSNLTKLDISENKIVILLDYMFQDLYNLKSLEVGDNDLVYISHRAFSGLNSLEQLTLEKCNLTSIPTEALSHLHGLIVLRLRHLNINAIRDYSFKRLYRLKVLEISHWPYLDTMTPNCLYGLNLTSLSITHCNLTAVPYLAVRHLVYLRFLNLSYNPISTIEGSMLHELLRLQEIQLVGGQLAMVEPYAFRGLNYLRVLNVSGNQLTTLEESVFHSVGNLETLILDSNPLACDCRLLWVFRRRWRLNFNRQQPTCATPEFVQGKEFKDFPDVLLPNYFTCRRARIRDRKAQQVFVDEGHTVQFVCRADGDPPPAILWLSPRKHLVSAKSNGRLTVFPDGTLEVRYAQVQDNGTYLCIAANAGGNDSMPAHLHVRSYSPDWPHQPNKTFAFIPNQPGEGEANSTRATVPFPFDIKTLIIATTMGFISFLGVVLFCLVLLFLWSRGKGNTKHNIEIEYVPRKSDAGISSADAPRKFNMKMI
Procedure: (§1) Cell based affinity of anti-LINGO-1 specific antibodies is determined by FACS saturation binding experiments. The determination of the apparent KD values is carried out identical to the procedure described above using anti-LINGO-1 Fab antibodies.
(§2) In detail, CHO-K1-hLINGO-1, CHO-K1-cmLINGO-1 or CHO-K1-rLINGO-1 are detached from culture flasks by versene, washed with FACS buffer and resuspended in FACS buffer. Purified anti-LINGO-1 IgG4s are serially diluted in FACS buffer and spread into round bottom 96-well microtiter plates (NUNC™, Wiesbaden, Germany). For each concentration, duplicate wells are incubated with 1.25×10⁴ cells for 30-60 min on ice in a total volume of 100 μl. […] Using this assay the following apparent KD values can be determined (Table 3).

[3] = biological target: human LINGO-1 expressed on CHO-K1 cells (CHO-K1-hLINGO-1) (human) (UniProt Q96FE5); assay: apparent KD, FACS saturation binding on CHO-K1-hLINGO-1 cells, IgG4 pre-incubated in FACS buffer
[4] = biological target: T2, human LINGO-2 expressed on CHO-K1 cells (CHO-K1-hLINGO-2) (human, UniProt Q7L985 26-606); assay: apparent KD, FACS saturation binding on CHO-K1-hLINGO-2 cells, IgG4 format
T2 construct: range 26-606; not shown: 2 amino acid residue linker
T2 sequence (looked up): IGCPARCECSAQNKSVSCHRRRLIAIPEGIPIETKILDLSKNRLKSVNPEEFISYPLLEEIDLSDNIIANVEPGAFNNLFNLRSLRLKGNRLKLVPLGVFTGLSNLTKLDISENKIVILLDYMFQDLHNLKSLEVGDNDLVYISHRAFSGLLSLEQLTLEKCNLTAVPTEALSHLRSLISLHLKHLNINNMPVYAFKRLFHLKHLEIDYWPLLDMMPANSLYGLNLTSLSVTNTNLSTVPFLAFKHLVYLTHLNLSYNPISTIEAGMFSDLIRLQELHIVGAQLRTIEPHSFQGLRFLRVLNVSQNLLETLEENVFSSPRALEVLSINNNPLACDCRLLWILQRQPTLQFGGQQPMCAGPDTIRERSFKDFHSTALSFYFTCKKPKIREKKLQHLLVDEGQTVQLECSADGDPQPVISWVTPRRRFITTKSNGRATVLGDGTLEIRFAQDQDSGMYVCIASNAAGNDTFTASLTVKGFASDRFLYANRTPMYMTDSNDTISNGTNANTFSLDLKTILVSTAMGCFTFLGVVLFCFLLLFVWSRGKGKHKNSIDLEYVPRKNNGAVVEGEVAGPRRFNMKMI

[5] = biological target: human LINGO-1 expressed on CHO-K1 cells (CHO-K1-hLINGO-1) (human) (UniProt Q96FE5); assay: apparent KD, FACS saturation binding on CHO-K1-hLINGO-1 cells, IgG4 pre-incubated in FACS buffer + 2.6% BSA
[6] = biological target: human LINGO-1 expressed on CHO-K1 cells (CHO-K1-hLINGO-1) (human) (UniProt Q96FE5); assay: FACS saturation binding on CHO-K1-hLINGO-1 cells, IgG4, with 50% human CSF against control
[7] = biological target: human LINGO-1 expressed on CHO-K1 cells (CHO-K1-hLINGO-1) (human) (UniProt Q96FE5); assay: apparent KD, FACS saturation binding on CHO-K1-hLINGO-1 cells, IgG4 pre-incubated in FACS buffer + 50% human serum
[8] = biological target: human LINGO-1 expressed on CHO-K1 cells (CHO-K1-hLINGO-1) (human) (UniProt Q96FE5); assay: ratio of apparent KDs, FACS saturation binding on CHO-K1-hLINGO-1 cells, IgG4, without against with 50% human CSF
[9] = biological target: T3, rat LINGO-1 expressed on CHO-K1 cells (CHO-K1-rLINGO-1) (rat, UniProt A0A8I5ZPI2 34-614); assay: apparent KD, FACS saturation binding on CHO-K1-rLINGO-1 cells, IgG4 format
T3 construct: range 34-614; not shown: 2 amino acid residue linker
T3 sequence: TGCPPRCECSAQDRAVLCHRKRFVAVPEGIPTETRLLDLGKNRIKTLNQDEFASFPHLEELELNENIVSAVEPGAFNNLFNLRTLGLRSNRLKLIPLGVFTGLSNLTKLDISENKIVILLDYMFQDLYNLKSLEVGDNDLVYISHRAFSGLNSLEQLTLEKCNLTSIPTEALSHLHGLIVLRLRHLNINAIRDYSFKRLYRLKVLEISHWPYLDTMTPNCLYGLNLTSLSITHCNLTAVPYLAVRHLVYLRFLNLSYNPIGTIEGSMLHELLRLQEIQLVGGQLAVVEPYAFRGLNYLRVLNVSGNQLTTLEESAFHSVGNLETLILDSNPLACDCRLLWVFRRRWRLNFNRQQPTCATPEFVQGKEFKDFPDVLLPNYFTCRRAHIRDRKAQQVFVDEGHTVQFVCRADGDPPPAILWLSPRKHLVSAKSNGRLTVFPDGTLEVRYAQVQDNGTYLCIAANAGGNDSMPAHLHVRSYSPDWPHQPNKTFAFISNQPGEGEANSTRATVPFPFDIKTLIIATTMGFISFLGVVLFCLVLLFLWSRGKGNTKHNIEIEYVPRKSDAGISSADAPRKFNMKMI
Procedure: as §1, §2

[10] = biological target: human LINGO-1 expressed on CHO-K1 cells (CHO-K1-hLINGO-1) (human) (UniProt Q96FE5); assay: apparent KD, FACS saturation binding on CHO-K1-hLINGO-1 cells, IgG4, with 50% human cerebro-spinal fluid
[11] = biological target: human LINGO-1 expressed on CHO-K1 cells (CHO-K1-hLINGO-1) (human) (UniProt Q96FE5); assay: apparent KD, FACS saturation binding on CHO-K1-hLINGO-1 cells, IgG4, without 50% human cerebro-spinal fluid (control)

B1: anti-LINGO-1 IgG4 antibody 4784 (antibody, V domains shown)
VH: QVQLKESGPALVKPTQTLTLTCTFSGFSLSSSGVGVGWIRQPPGKALEWLAHIGSDDDKYYSTSLKTRLTISKDTSKNQVVLTMTNMDPVDTATYYCARNQQYGDGYPGYFDYWGQGTLVTVSS
VL: DIELTQPPSVSVAPGQTARISCSGDNIGNYYVYWYQQKPGQAPVLVIYEDTNRPSGIPERFSGSNSGNTATLTISGTQAEDEADYYCQSYDNLHEQVFGGGTKLTVLG
[1]
  Kd: 290 pM
[2]
  Kd: 620 pM
[3]
  Kd: 280 pM
[4]
  Kd: 25900 pM
[5]
  Kd: 190 pM
[6]
  reduction in affinity: 73%
[7]
  Kd: 270 pM
[8]
  App. KD ratio w/o CSF:w/ CSF: 0.27
[9]
  Kd: 980 pM
[10]
  Kd: 1570 pM
[11]
  Kd: 430 pM
